Data: US20040234623A1

Target: rabbit anti-human IDO polyclonal antibody (raised against the KLH-conjugated peptide of SEQ ID NO: 1, affinity purified)
Assay: flow cytometry of IFNgamma-activated monocyte-derived macrophages; antibody pre-adsorbed with immunizing peptide (competition against cellular IDO)

B1: immunizing peptide … (SEQ ID NO: 1), based on human IDO (peptide)
peptide: LIESGQLRERVEKLNMLC
- percent reduction of flow cytometry signal: > 95%
